Values quoted from earlier work as cited in publication PMC3362950.

Biological target: Kv1.3 (UniProt P22001)
UniProt P22001, sequence (P22001 whole entry): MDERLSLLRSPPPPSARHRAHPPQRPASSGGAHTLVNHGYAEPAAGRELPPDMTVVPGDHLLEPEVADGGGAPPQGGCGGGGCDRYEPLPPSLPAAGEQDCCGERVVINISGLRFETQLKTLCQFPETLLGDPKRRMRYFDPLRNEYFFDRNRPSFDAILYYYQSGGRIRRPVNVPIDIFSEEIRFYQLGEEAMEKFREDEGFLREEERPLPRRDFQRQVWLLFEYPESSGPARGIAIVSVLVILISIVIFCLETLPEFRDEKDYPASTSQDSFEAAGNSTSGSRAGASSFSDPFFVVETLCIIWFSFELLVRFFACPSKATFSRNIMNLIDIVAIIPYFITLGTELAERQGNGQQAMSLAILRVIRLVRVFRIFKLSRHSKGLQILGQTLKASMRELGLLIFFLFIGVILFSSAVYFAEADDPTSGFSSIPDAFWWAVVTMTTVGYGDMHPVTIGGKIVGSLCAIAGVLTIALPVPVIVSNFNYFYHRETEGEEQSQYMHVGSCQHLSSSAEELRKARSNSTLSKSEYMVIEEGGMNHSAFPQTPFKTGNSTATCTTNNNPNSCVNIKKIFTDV

## KTX (from UniProt P24662)
  Kd: 10 pM
